Assay results reported in PMC3824165.

Legend:
[1] = target: host cellular β-tubulin (293T cells) (human (endogenous in 293T)) (UniProt P07437); test: co-IP
[2] = target: host cellular β-tubulin (Vero cells) (African green monkey (endogenous in Vero)); test: co-IP

Substance | ratio of precipitated TgRON4 to TgRON4 in total membrane fraction [1] [%] | ratio of precipitated TgRON4 to TgRON4 in total membrane fraction [2] [%]
3xFLAG-tagged C-terminal half of TgRON4 (TgRON4B) (domain or fragment) | 0.82 | 0.56
3xFLAG-tagged full-length TgRON4 lacking its putative signal sequence (TgRON4-Full) (from UniProt B6KJ32 27-984) (natural protein) |  | 1
